Source: patent US20250213713A1, “Antibody-Drug Conjugates Targeting uPARAP Comprising Exatecan Derivatives” (ADCENDO APS, priority 2022, published 2025)

Assays:
JIMT-1 cells = assay: Inhibition of in vitro proliferation of tumor cells (CTG), JIMT-1; assay type: cell-based; details: read-out: JIMT-1 IC50; Table 8, 6 days of culture
Method: (§1) To test the inhibitory activity of the pharmaceutical compounds on the in vitro proliferation of NCI-N87, JIMT-1 and MBA-MB-231 tumor cells. The cells were treated with the compounds at different concentrations in vitro, and after 6 days of culture, the proliferation of cells was detected using the CTG (CellTiter-Glo® Luminescent Cell Viability Assay, Promega, Cat. No. G7558) reagent, and the in vitro activity of the compounds was evaluated according to the IC50 value. […]
(§2) There were 8 concentrations in total for the small molecule compounds: 300 nM, 100 nM, 30 nM, 10 nM, 3 nM, 1 nM, 0.3 nM, and 0.1 nM. • 5. Sample adding: the prepared samples to be detected at different concentrations were added to the culture plate, and two duplicate wells were set for each sample. […] Plate reading: the 96-well cell culture plate was taken out, placed in a microplate reader, and measured for the chemiluminescence using the microplate reader.
as §1, with “with” for “with the”, “using” for “using the”, “reagents,” for “reagent,”, “value. • 1.” for “value.”

NCI-N87 cells = assay: Inhibition of in vitro proliferation of tumor cells (CTG), NCI-N87; assay type: cell-based; details: read-out: NCI-N87 IC50; Table 8, 6 days of culture
Method: as §1, §2
as §1, with “with” for “with the”, “using” for “using the”, “reagents,” for “reagent,”, “value. • 1.” for “value.”

[1] = molecular target: T1, soluble full-length uPARAP (UniProt Q9UBG0 31-1414, limits assumed); assay: SPR (Biacore 2000), antibody captured on anti-human Fc CM5 chip, soluble full-length uPARAP as analyte, 25 C, Langmuir 1:1 global fit
T1 construct: also called CD280
T1 sequence (looked up): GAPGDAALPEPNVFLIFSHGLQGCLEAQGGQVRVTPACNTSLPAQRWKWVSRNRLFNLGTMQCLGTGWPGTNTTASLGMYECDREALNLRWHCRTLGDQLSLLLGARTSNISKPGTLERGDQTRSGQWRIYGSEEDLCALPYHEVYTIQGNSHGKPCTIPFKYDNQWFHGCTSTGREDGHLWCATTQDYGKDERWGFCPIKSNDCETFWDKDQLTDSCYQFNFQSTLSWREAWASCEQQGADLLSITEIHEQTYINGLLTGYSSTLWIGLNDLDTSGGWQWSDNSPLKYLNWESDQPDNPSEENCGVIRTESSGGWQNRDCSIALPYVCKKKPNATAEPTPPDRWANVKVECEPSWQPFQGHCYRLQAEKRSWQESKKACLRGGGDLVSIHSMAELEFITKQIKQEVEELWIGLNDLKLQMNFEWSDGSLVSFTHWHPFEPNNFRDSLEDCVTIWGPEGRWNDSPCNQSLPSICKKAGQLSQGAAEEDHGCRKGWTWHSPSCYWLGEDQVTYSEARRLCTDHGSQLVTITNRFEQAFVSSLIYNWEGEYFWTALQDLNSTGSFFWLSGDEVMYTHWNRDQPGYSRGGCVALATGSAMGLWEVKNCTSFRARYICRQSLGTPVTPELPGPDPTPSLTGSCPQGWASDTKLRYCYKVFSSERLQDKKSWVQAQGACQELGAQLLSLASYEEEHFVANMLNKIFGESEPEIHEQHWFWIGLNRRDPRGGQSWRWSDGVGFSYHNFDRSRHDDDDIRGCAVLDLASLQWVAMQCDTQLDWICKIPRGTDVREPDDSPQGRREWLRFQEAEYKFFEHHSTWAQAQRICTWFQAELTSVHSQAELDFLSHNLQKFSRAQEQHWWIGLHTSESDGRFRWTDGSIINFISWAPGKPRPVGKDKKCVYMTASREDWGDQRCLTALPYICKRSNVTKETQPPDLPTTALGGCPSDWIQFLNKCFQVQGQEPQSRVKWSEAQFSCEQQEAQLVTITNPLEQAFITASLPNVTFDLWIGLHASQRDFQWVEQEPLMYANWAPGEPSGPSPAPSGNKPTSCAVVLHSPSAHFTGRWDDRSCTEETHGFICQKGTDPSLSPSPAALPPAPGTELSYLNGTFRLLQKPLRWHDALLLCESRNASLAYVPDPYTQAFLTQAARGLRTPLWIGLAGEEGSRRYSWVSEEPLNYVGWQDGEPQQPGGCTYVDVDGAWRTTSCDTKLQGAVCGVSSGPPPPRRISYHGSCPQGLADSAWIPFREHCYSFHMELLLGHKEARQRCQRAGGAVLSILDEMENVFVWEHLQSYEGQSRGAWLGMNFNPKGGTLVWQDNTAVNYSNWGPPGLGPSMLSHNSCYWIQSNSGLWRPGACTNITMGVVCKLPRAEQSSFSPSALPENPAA
Method: (§3) SPR analyses were performed for determination of the affinity of the obtained antibodies towards uPARAP. These analyses were performed using a Biacore 2000 instrument (Biaffin GmbH, Kassel, Germany) using a CM5 sensor chip with an anti-human Fc capture surface for antibody binding. The analysis temperature was set at 25° C. Binding of antibody onto this surface was followed by passing soluble full-length uPARAP over the chip, and the resulting association and dissociation rates were derived from the resulting binding curves. For kinetic interaction analyses, a flowrate of 30 μL/min was used and the analysis buffer consisted of 10 mM HEPES pH 7.4, 150 mM NaCl, 3 mM EDTA, 0.05% Tween 20.
(§4) LC4HC3 and LC0HC0 were analyzed by SPR as described in Materials and Methods above. In particular, the binding kinetics of LC4HC3 were compared with those of LC0HC0 (Table 5).

[2] = molecular target: T1, soluble full-length uPARAP; assay: SPR (Biacore 2000), ratio of KD values against LC0HC0
Method: as §3, §4

`CC[C@@]1(O)C(=O)OCc2c1cc1n(c2=O)Cc2c-1nc1cc(F)c(C)c3c1c2[C@@H](NC(=O)CCS)CC3` [P-III-2] was tested, and the IC50 (JIMT-1 cells) was 108 nM and the IC50 (NCI-N87 cells) was 108 nM.

`CC[C@@]1(O)C(=O)OCc2c1cc1n(c2=O)Cc2c-1nc1cc(F)c(C)c3c1c2[C@@H](NC(=O)CC(C)(C)O)CC3` [P-III-21] gave an IC50 (JIMT-1 cells) of 2.87 nM and an IC50 (NCI-N87 cells) of 4.75 nM.

B1: 980.2 LC4HC3 (humanized 9b7 antibody) (antibody, human IgG1, kappa, V domains shown)
VH: QVQLVQSGAEVKKPGASVKVSCKASGYIFIDYGMHWVRQAPGQRLEWMGSINTKSGVSTYAAEFKGRVTIYSDTSASTAYMELSSLRSEDTAVYFCARPPYYSQYGSYWGQGTLVTVSS
VL: EIVMTQSPDSLAVSLGERATINCKASQNVDTYVVWYQQKPGQPPQPLIYSASSRFSGVPDRFSGSGSGTDFTLTISSLQAEDVAIYYCQQYHNSPLTFGGGTKVEIKR
notes: Complete IgG1 kappa, expressed in CHO cells; captured by anti-human Fc in the SPR assay
Work on B1 yielded a Kd [1] of 0.5 nM, a koff [1] of 4.04e-05 s⁻¹ and a kon [1] of 81300 M⁻¹ s⁻¹. For the same molecule, the “fold higher ligand affinity than LC0HC0” value [2] was ~1.7 fold.

B2: 980.2 LC0HC0 (chimeric antibody: variable domains of murine 9b7 fused to human IgG1 kappa constant regions) (antibody, V domains shown)
VH: QVHLVQSGPELKKPGETVKISCKASGYIFIDYGMHWVKQAPGKGLKWMGSINTKSGVSTYAAEFKGRFAFSLETSASTAYLQINNLKNEDTATYFCARPPYYSQYGSYWGQGTLVTVSA
VL: DIVMTQSQKFMSTSVGDRVSVTCKASQNVDTYVVWYQQKPGQSPKPLIYSASSRFSGVPDRFTGTGSGTDFTLTINNVQSEDLAEYFCQQYHNSPLTFGGGTKLEIKR
notes: Complete IgG1 kappa, expressed in CHO cells; captured by anti-human Fc in the SPR assay; also called parental antibody
Work on B2 yielded a Kd [1] of 0.86 nM, a koff [1] of 5.33e-05 s⁻¹ and a kon [1] of 62300 M⁻¹ s⁻¹.
